Each block holds one binder with its values, some of them ahead of it.
How the values were obtained:
O6 = target: T1, O6; assay: two-hybrid library CC0; settings: mean of both orientations;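 note: natural log of median RNA to DNA barcode read ratio; higher means stronger binding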
T1 chain: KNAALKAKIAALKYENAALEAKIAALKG

O8 = target: T2, O8; assay: two-hybrid library CC0; settings: mean of both orientations;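 note: natural log of median RNA to DNA barcode read ratio; higher means stronger binding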
T2 chain: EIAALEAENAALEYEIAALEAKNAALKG

O2 = target: T3, O2; assay: two-hybrid library CC0; settings: mean of both orientations;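 note: natural log of median RNA to DNA barcode read ratio; higher means stronger binding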
T3 chain: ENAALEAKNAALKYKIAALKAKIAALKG

O11 = target: T4, O11; assay: two-hybrid library CC0; settings: mean of both orientations;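 note: natural log of median RNA to DNA barcode read ratio; higher means stronger binding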
T4 chain: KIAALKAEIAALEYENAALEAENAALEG

O12 = target: T5, O12; assay: two-hybrid library CC0; settings: mean of both orientations;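 note: natural log of median RNA to DNA barcode read ratio; higher means stronger binding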
T5 chain: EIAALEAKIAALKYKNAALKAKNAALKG

O15 = target: T6, O15; assay: two-hybrid library CC0; settings: mean of both orientations;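 note: natural log of median RNA to DNA barcode read ratio; higher means stronger binding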
T6 chain: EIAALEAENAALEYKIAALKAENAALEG

O9 = target: T7, O9; assay: two-hybrid library CC0; settings: mean of both orientations
T7 chain: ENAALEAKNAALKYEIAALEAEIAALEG

O4 = target: T8, O4; assay: two-hybrid library CC0; settings: mean of both orientations
T8 chain: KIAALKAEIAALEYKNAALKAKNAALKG

O7 = target: T9, O7; assay: two-hybrid library CC0; settings: mean of both orientations
T9 chain: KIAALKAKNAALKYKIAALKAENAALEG

O14 = target: T10, O14; assay: two-hybrid library CC0; settings: mean of both orientations
T10 chain: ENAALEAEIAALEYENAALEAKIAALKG

O16 = target: T11, O16; assay: two-hybrid library CC0; settings: mean of both orientations
T11 chain: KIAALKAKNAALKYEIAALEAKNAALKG

O13 = target: T12, O13; assay: two-hybrid library CC0; settings: mean of both orientations
T12 chain: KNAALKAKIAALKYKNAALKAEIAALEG

O3 = target: T13, O3; assay: two-hybrid library CC0; settings: mean of both orientations
T13 chain: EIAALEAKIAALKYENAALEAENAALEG

O5 = target: T14, O5; assay: two-hybrid library CC0; settings: mean of both orientations
T14 chain: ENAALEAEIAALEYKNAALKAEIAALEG

P11A-bA = target: T15, P11A-bA; assay: two-hybrid library CCNG1
T15 chain: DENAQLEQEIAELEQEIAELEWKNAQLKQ

4H491-bH = target: T16, 4H491-bH; assay: two-hybrid library CCNG1
T16 chain: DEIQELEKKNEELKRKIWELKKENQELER

O14-AA = target: T17, O14-AA; assay: two-hybrid library CCmax; settings: mean of both orientations
T17 chain: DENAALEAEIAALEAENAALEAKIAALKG

4H3625-AA = target: T18, 4H3625-AA; assay: two-hybrid library CCmax; settings: mean of both orientations
T18 chain: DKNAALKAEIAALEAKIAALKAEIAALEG

4H384-AA = target: T19, 4H384-AA; assay: two-hybrid library CCmax; settings: mean of both orientations
T19 chain: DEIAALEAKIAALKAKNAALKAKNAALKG

4H_APH = target: T20, 4H_APH; assay: two-hybrid library CCmax; settings: mean of both orientations
T20 chain: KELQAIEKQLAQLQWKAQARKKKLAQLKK

O11-AA = target: T21, O11-AA; assay: two-hybrid library CCmax; settings: mean of both orientations
T21 chain: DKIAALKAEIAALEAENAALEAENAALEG

4H1392-AA = target: T22, 4H1392-AA; assay: two-hybrid library CCmax; settings: mean of both orientations
T22 chain: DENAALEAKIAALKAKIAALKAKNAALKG

4H510-AA = target: T23, 4H510-AA; assay: two-hybrid library CCmax; settings: mean of both orientations
T23 chain: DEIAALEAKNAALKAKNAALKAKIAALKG

4H4038-AA = target: T24, 4H4038-AA; assay: two-hybrid library CCmax; settings: mean of both orientations
T24 chain: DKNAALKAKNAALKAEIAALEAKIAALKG

4H3049-AA = target: T25, 4H3049-AA; assay: two-hybrid library CCmax; settings: mean of both orientations
T25 chain: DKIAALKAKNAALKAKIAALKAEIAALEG

4H3590-AA = target: T26, 4H3590-AA; assay: two-hybrid library CCmax; settings: mean of both orientations
T26 chain: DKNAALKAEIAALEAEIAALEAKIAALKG

4H3587-AA = target: T27, 4H3587-AA; assay: two-hybrid library CCmax; settings: mean of both orientations
T27 chain: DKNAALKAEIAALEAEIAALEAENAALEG

4H1385-AA = target: T28, 4H1385-AA; assay: two-hybrid library CCmax; settings: mean of both orientations
T28 chain: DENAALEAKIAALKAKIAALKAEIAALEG

4H337-AA = target: T29, 4H337-AA; assay: two-hybrid library CCmax; settings: mean of both orientations
T29 chain: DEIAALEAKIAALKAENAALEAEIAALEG

4H_BCR = target: T30, 4H_BCR; assay: two-hybrid library CCmax
T30 chain: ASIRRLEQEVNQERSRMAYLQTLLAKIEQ

4H_GCN4 = assay: two-hybrid library CCmax
4H2888-AA = target: T31, 4H2888-AA; assay: two-hybrid library CCmax; settings: mean of both orientations
T31 chain: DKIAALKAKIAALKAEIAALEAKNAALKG

4H2622-AA = target: T32, 4H2622-AA; assay: two-hybrid library CCmax; settings: mean of both orientations
T32 chain: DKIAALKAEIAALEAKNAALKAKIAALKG

4H3905-AA = target: T33, 4H3905-AA; assay: two-hybrid library CCmax; settings: mean of both orientations
T33 chain: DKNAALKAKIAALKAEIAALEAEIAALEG

4H2705-AA = target: T34, 4H2705-AA; assay: two-hybrid library CCmax; settings: mean of both orientations
T34 chain: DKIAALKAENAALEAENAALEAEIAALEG

4H2736-AA = target: T35, 4H2736-AA; assay: two-hybrid library CCmax; settings: mean of both orientations
T35 chain: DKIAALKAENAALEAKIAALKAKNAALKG

GCN2_T = assay: two-hybrid library CCmax; settings: mean of both orientations
O13-AA = target: T36, O13-AA; assay: two-hybrid library CCmax; settings: mean of both orientations
T36 chain: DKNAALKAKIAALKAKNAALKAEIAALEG

4H1350-AA = target: T37, 4H1350-AA; assay: two-hybrid library CCmax; settings: mean of both orientations
T37 chain: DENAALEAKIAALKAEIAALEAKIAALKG

4H43-AA = target: T38, 4H43-AA; assay: two-hybrid library CCmax; settings: mean of both orientations
T38 chain: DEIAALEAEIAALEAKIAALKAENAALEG

4H134-AA = target: T39, 4H134-AA; assay: two-hybrid library CCmax
T39 chain: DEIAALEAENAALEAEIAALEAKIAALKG

4H451-AA = target: T40, 4H451-AA; assay: two-hybrid library CCmax; settings: mean of both orientations
T40 chain: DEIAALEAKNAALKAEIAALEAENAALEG

4H2513-AA = target: T41, 4H2513-AA; assay: two-hybrid library CCmax; settings: mean of both orientations
T41 chain: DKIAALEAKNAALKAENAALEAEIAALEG

4H2726-AA = target: T42, 4H2726-AA; assay: two-hybrid library CCmax; settings: mean of both orientations
T42 chain: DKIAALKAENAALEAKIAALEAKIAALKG

4H1198-AA = target: T43, 4H1198-AA; assay: two-hybrid library CCmax; settings: mean of both orientations
T43 chain: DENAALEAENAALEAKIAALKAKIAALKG

4H3664-AA = target: T44, 4H3664-AA; assay: two-hybrid library CCmax; settings: mean of both orientations
T44 chain: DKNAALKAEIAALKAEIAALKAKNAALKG

4H2536-AA = target: T45, 4H2536-AA; assay: two-hybrid library CCmax; settings: mean of both orientations
T45 chain: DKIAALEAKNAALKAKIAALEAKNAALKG

4H3922-AA = target: T46, 4H3922-AA; assay: two-hybrid library CCmax; settings: mean of both orientations
T46 chain: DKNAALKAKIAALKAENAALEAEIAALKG

4H1103-AA = target: T47, 4H1103-AA; assay: two-hybrid library CCmax
T47 chain: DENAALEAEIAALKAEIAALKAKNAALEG

4H2608-AA = target: T48, 4H2608-AA; assay: two-hybrid library CCmax; settings: mean of both orientations
T48 chain: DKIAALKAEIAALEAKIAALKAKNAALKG

4H1405-AA = target: T49, 4H1405-AA; assay: two-hybrid library CCmax; settings: mean of both orientations
T49 chain: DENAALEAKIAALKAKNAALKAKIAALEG

4H662-AA = target: T50, 4H662-AA; assay: two-hybrid library CCmax; settings: mean of both orientations
T50 chain: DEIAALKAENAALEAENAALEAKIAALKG

4H327-AA = target: T51, 4H327-AA; assay: two-hybrid library CCmax
T51 chain: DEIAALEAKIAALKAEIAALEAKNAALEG

4H55-AA = target: T52, 4H55-AA; assay: two-hybrid library CCmax; settings: mean of both orientations
T52 chain: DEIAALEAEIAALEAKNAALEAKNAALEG

4H2211-AA = target: T53, 4H2211-AA; assay: two-hybrid library CCmax
T53 chain: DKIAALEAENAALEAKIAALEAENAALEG

4H2935-AA = target: T54, 4H2935-AA; assay: two-hybrid library CCmax; settings: mean of both orientations
T54 chain: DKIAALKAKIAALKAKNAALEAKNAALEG

4H369-AA = target: T55, 4H369-AA; assay: two-hybrid library CCmax; settings: mean of both orientations
T55 chain: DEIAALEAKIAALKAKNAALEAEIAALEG

4H2614-AA = target: T56, 4H2614-AA; assay: two-hybrid library CCmax; settings: mean of both orientations
T56 chain: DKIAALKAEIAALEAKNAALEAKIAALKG

4H481-AA = target: T57, 4H481-AA; assay: two-hybrid library CCmax; settings: mean of both orientations
T57 chain: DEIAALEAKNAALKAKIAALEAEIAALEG

4H3605-AA = target: T58, 4H3605-AA; assay: two-hybrid library CCmax; settings: mean of both orientations
T58 chain: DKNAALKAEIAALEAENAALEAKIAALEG

4H2238-AA = target: T59, 4H2238-AA; assay: two-hybrid library CCmax; settings: mean of both orientations
T59 chain: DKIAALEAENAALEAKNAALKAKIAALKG

4H4033-AA = target: T60, 4H4033-AA; assay: two-hybrid library CCmax; settings: mean of both orientations
T60 chain: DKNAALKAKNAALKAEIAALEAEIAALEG

Sequence of 4H_GCN4 (chain, as listed by the source): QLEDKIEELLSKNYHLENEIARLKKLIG

B1: O11 (peptide)
chain: KIAALKAEIAALEYENAALEAENAALEG
interaction score (O6): -2.64
interaction score (O8): -2.61
interaction score (O2): -2.53
interaction score (O11): -2.72
interaction score (O12): 0.932
interaction score (O15): -2.79
interaction score (O9): -2.79
interaction score (O4): 0.197
interaction score (O7): -2.69
interaction score (O14): -2.7
interaction score (O16): -2.66
interaction score (O13): -2.75
interaction score (O3): -2.55
interaction score (O5): -2.71

interaction score (P11A-bA): 0.405
interaction score (4H491-bH): -1.32
B2: 4H491-bH (peptide)
chain: DEIQELEKKNEELKRKIWELKKENQELER

interaction score (O14-AA): -0.533
interaction score (4H3625-AA): 1.5
interaction score (4H384-AA): 2.04
interaction score (4H_APH): 1.96
interaction score (O11-AA): -1.36
interaction score (4H1392-AA): 0.139
interaction score (4H510-AA): 1.96
interaction score (4H4038-AA): 2
interaction score (4H3049-AA): 1.84
interaction score (4H3590-AA): 0.654
interaction score (4H3587-AA): 0.794
interaction score (4H1385-AA): 2.21
interaction score (4H337-AA): 0.273
interaction score (4H_BCR): -0.839
interaction score (4H_GCN4): 1.94
interaction score (4H2888-AA): 2.4
interaction score (4H2622-AA): 2.38
interaction score (4H3905-AA): 1.17
interaction score (4H2705-AA): -0.938
interaction score (4H2736-AA): 0.536
interaction score (GCN2_T): 0.268
interaction score (O13-AA): 2.02
interaction score (4H1350-AA): 0.48
interaction score (4H43-AA): -0.679
interaction score (4H134-AA): -0.374
interaction score (4H451-AA): 0.937
B3: 4H134-AA (peptide)
chain: DEIAALEAENAALEAEIAALEAKIAALKG

interaction score (4H3625-AA): -0.923
interaction score (4H2513-AA): -1.55
interaction score (4H2726-AA): -1.04
interaction score (4H1198-AA): -1.33
interaction score (4H3664-AA): 2.17
interaction score (4H2536-AA): -1.47
interaction score (4H3922-AA): -1.44
interaction score (4H1103-AA): 1.1
interaction score (4H2608-AA): 0.0702
interaction score (4H1405-AA): -1.89
interaction score (4H662-AA): -1.27
interaction score (4H327-AA): -0.714
interaction score (4H55-AA): -1.09
interaction score (4H2211-AA): -1.7
interaction score (4H2935-AA): -1.16
interaction score (4H369-AA): -1.5
interaction score (4H2614-AA): -1.01
interaction score (4H1350-AA): -0.275
interaction score (4H481-AA): -0.163
interaction score (4H3605-AA): -1.61
interaction score (4H2238-AA): -1.65
interaction score (4H4033-AA): 0.386
B4: 4H1103-AA (peptide)
chain: DENAALEAEIAALKAEIAALKAKNAALEG
